Experimental data as given in PMC8144298.

Target: CsrA-3xFLAG (Escherichia coli) (UniProt P69913)
Assay: competition
Conditions: competitor conc. that fully displaces labeled RrBshort (120 pM) from 200 nM CsrA; CsrA EMSA: 100 mM KCl, 10 mM MgCl2, 2 mM DTT, 7.5% glycerol, 2 ng total yeast RNA, 120 pM RNA, 10 min 37 C, 8% native PAGE in 1x TBE (pH not stated); Hfq EMSA: …

Sequence of CsrA-3xFLAG (Escherichia coli) (P69913 whole entry): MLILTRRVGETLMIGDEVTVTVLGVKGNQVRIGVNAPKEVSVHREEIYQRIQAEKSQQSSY

CsrB
binding signal: 3.13 nM
